Test results published in article PMC8025675.

Molecular target: low-affinity anti-HER2 scFv (scFv Kd = 210 nM)
Experiment: BLI

Work on “human epidermal growth factor receptor 2 (HER2) (from UniProt P04626 23-1255)” yielded a Kd of 210 nM.
